Molecular target: NyxB (His tag cleaved, for crystallisation, SEC-MALS and SAXS) (Brucella abortus 2308) (UniProt Q2YPZ9)
Assay: SEC-MALS

NyxB (His tag cleaved, for crystallisation, SEC-MALS and SAXS) (from UniProt Q2YPZ9 1-134) (natural protein)
stoichiometry N: 2

Reference: publication PMC9823007
